Laboratory results as given in the RNAGym collection of RNA variant scans (doi:10.7554/elife.80360).

B1: HDV Ribozyme (parent)
chain: GGCCGGCAUGGUCCCAGCCUCCUCGCUGGCGCCGGCUGGGCAACAUUCCGAGGGGACCGUCCCCUCGGUAAUGGCGAAUGGGACCCA

Variants of: B1
Assay: self-cleavage, relative activity (ratio to wild type); higher = more cleavage; co-transcriptional

Variant	self-cleavage
C41A G73A	0.912
C41A G73U	0.873
G38U U47G	0.166
G38U U47C	0.133
G39A G82U	0.0536
G40A A43C	0.601
G38U G59A	0.181
G38U G59C	0.264
C41A C62G	0.324
G38U C49U	0.172
C41U A70C	0.803
G39A A87G	0.517
G39A A87C	0.578
G38U A56G	0.193
G38U A56U	0.273
G40A G50A	0.884
G38U G39U	0.0573
G40A C61G	1.17
G40U A83G	0.597
G40U A83C	0.453
C41U A45G	0.575
C41U A45U	0.884
G38U G50A	0.218
G38U G50U	0.352

Variant	self-cleavage
G40U G81U	0.0989
C41A A70C	0.527
C41A A70G	0.916
G40A G59A	0.87
G38C G39C	0.0426
G40A A42G	0.475
G39U C58U	0.716
G40C C86A	0.363
G39A G53U	0.504
C41A A42C	0.739
C41A A42U	0.743
G39U C86G	0.784
G40C G76C	0.197
G38C G52A	0.322
G39A A45G	0.629
G40A G54C	0.926
G38C C75U	0.0297
G38C C61G	0.219
G38C C61A	0.218
C41A G81A	0.242
G40A A70U	0.868
G40A A70G	0.914
G40U G59U	0.732
G38U A45G	0.0426

Variant	self-cleavage
G38U A45U	0.158
C41A U47G	1.08
C41A U47C	0.932
G39C C64A	0.0369
G40U C58U	0.669
G40U C58A	0.67
C41G A87C	0.65
G38U C66A	0.185
G39A A77G	0.141
G38C U47C	0.161
G39U A45G	0.743
C41A G76A	0.845
G39U G50C	0.598
C41G G68U	0.596
G40U A87G	0.578
C41G U72C	0.201
C41G U72A	0.499
C41G A83G	0.759
G40U A70G	0.528
G38U C85A	0.205
C41A U69G	0.975
C41A U69C	0.898
C41A C49G	0.91
G39U A43C	0.237

Variant	self-cleavage
C41U C44A	0.353
C41U C44G	0.492
G39C G73U	0.106
G39C G54A	0.188
G38C C85U	0.185
G38C G50A	0.188
G38C G50U	0.157
G40A A87U	1.02
G38U G76U	0.237
G40U U47G	0.46
G39U G59A	0.636
G39A G81A	0.0898
G40A G52U	0.683
G40A G52A	0.858
C41U A78G	0.724
G40A G82U	0.198
G40A G82C	0.0665
G39C G81U	0.143
G39U G54C	0.76
G38C U65G	0.142
G38C U65C	0.391
G39C A45G	0.0923
G39A U72G	0.102
G38U G52U	0.273

Variant	self-cleavage
G38U G52C	0.169
G38U C84A	0.174
G39C G50A	0.246
C41U C48G	0.955
C41G C85G	0.429
C41G C85U	0.629
C41U C57A	0.986
G38U G68C	0.245
G39C G52C	0.309
G39C A70C	0.175
G39C C63G	0.0437
G40C A42G	0.196
G40U G80A	0.197
C41G G50A	0.911
C41G G50C	0.554
G39U C61U	0.58
G40U G67A	0.699
C41A U79A	0.656
G40C C57A	0.295
G40C C57U	0.354
G40C C57G	0.36
C41A G74U	0.513
G39U C84G	0.348
G39U C84A	0.495

Variant	self-cleavage
G38C U79C	0.0264
G38U U65G	0.233
G40C A51C	0.111
G39C G55U	0.305
G39C G55A	0.211
G40C A45U	0.211
G40C A45G	0.32
G40U C75G	0.166
G40U U46C	0.227
G39C C86U	0.208
G39C C86G	0.259
G38U U72A	0.0378
C41G G73U	0.378
G39U C63G	0.507
C41G A70U	0.746
G39A U65G	0.264
C41A A78U	0.354
G39C A42C	0.244
G38U C86G	0.0573
G40U C41G	0.729
C41A G55C	0.831
G39U A70C	0.536
G39U A70G	0.637
G39A G80C	0.145

Variant	self-cleavage
G38U A77C	0.0554
G38U A77U	0.0845
G39U U65A	0.627
G40C C49G	0.261
G39A A42C	0
C41G U60A	0.733
G39A U60G	0.404
C41A C44G	0.323
G39U G67A	0.698
G39U G67C	0.746
C41G U65C	0.745
G39U U72G	0.284
G40A A51G	0.749
G40A C49G	0.944
G39C A51U	0.219
G39C C62A	0.244
G39U U60A	0.623
G39U U60C	0.772
C41G C44U	0.403
G40C U69A	0.119
G39A C49A	0.573
C41G C58U	0.746
C41G C58A	0.895
G39A A70G	0.483

Variant	self-cleavage
C41G C63U	0.844
G39U G82C	0.168
C41A A83G	0.732
G40A G55C	1.01
G39C G76U	0.831
G38C G74C	0.148
G39U C44A	0.0627
G39A G59C	0.546
G39A G59U	0.598
G38C G73C	0.284
C41G G80U	0.124
G39A G76A	0.421
G40C A77G	0.271
G40C A77C	0.151
G40A G74U	0.732
G40A G74C	0.485
C41G C86U	0.657
G39U G40A	0.807
G39U G40C	0.451
G38C C64U	0.369
G38U A71C	0.225
G40U G53A	0.715
C41A C58G	0.935
G40U A78G	0.199

Variant	self-cleavage
G40A A77G	1.05
G40C A83U	0
G39U G81A	0.228
C41A C48G	0.898
G40C A43G	0.136
G39U A42U	0.378
G39U A42C	0.237
C41G C62U	0.815
C41G C62A	0.814
G39A G74U	0.176
C41A C86G	0.739
G40U G74U	0.468
G40U G74C	0.111
C41G C49U	0.608
C41G C49G	0.597
G38U A43G	0.208
G39A C84G	0.0852
G38C C62U	0.197
G39C U69A	0.17
G40A U65A	0.914
G40A G73U	0.554
C41G G81U	0.166
C41G G81C	0.138
G39A U47A	0.356

Variant	self-cleavage
G39C G40A	0.695
C41G A51U	1.18
C41G A51G	0.499
G38U A51G	0.32
G38U A51C	0.246
G39U U69G	0.635
G38U C61G	0.086
G40A U46C	0.525
G40A C41U	0.87
G38U G74U	0.14
G38U G74C	0.115
G40C G74C	0.0652
G40U A42U	0.496
G38U C48G	0.156
G39A C63U	0.503
G40C C62U	0.324
C41A U65A	0.914
G39A A56C	0.447
G39A A56U	0.676
G39A C58G	0.363
G40A C62G	0.432
G40C G80U	0.0817
G40C G80A	0.0723
G39U C41G	0.46

Variant	self-cleavage
C41A G80C	0.164
C41G G54U	0.739
G39A G50A	0.445
G40C G68C	0.177
G40U C64A	0.57
G40U C64U	0.59
G39A G67U	0.351
G40A C86U	0.989
G40A C86G	1.01
G39A C57G	0.591
G40C C66A	0.282
G40C C66G	0.253
G38U C41G	0.325
G40A U72G	0.437
G39A C62G	0.129
G39A C62A	0.554
G38C C57A	0.102
G40C G54C	0.343
G39C G59A	0.23
G39C G59C	0.162
G39A A43U	0.0241
C41G U47A	1.12
G40C U46C	0.117
G39U G53U	0.587

Variant	self-cleavage
G38C G53A	0.313
G38C G53C	0.295
G40U G54U	0.665
G40C G73C	0.185
G40C G73A	0.223
G39A G54U	0.517
G39A G54C	0.369
G39A A71U	0.383
G39C A71C	0.0978
G38U C44G	0.0652
G39U C48G	0.862
G39U C48A	0.658
G39U C48U	0.594
G39A C61U	0.54
G39A C61A	0.546
G38C U72C	0.341
G40A A71G	0.748
G40C U65G	0.237
G40A C84A	0.917
C41A C64G	0.884
G40A C66A	0.808
G39C C61G	0.196
G39C C61U	0.233
G40C G67U	0.323

Variant	self-cleavage
C41U C61G	0.923
G39C U47C	0.166
C41A G67A	0.914
C41A G67U	0.739
G40A G76C	0.947
G40A G76U	0.843
G40U A51U	0.806
G39C G74A	0.36
C41A A56G	1.15
G39U G74C	0.23
G39U G74U	0.382
G39U G74A	0.669
G40A U69G	0.712
G40C C61U	0.192
G39U G73A	0.249
G39C G80U	0.101
G39U G76A	0.67
G39U G76C	0.724
G40A A45G	0.815
C41A C66A	0.804
C41A C66G	0.91
C41G G82C	0.158
G38C C84U	0.158
C41U A56C	1.04

Variant	self-cleavage
G39C U72A	0.0426
C41A G82A	0.223
C41A G82C	0.289
C41A G82U	0.348
G39C C48A	0.125
G39C G53U	0.133
G39C G53C	0
C41U C62G	0.426
G39U A87C	0.646
G39U A87G	0.661
G39U C85U	0.674
G39U G55C	0.698
G40C C63U	0.409
G40C C85G	0.16
G38C G55U	0.193
G40C C58U	0.354
G40C U60A	0.25
C41A G59A	0.844
C41A G59C	0.911
G39C C49G	0.219
G39C G82U	0.0791
G39C G82A	0.0308
